Measurements taken from patent US20230248770A1 (published 2023).

Assays:
[1] = target: T1, NEF peptide on HLA-A*24:02 (human); assay: cytokine release
T1 peptide: RYPLTFGWCF

[2] = target: T2, WT1 peptide on HLA-A*02:01 (human); assay: activation reporter or marker
T2 peptide: RMFPNAPYL

B1: FE11 γδTCR (TCR, V domains shown)
Vgamma: SSNLEGGTKSVTRPTRSSAEITCDLTVINAFYIHWYLHQEGKAPQRLLYYDVSNSKDVLESGLSPGKYYTHTPRRWSWILILRNLIENDSGVYYCATWDRPEIYYKKLFGSGTTLVVT
Vdelta: not shown
- binding result [1]: no recognition
- binding result [2]: no recognition
